From PMC8913300 (2022)
No end group written: not given here.

Legend:
[1] = biological target: T1, C terminus of Hsc70 interacting protein (CHIP) (human, UniProt Q9UNE7 1-303); experiment: FP
T1 chain: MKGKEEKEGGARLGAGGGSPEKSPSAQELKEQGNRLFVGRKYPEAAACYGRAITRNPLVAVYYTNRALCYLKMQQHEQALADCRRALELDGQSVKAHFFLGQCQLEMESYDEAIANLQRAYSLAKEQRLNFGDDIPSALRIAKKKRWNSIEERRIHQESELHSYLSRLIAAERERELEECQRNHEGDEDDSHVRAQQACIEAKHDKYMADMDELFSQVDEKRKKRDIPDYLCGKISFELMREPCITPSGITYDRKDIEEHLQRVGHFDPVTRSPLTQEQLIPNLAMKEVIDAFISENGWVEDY

DnaJB4 = DnaJB4 (human, UniProt Q9UDY4 1-337); experiment: FP
Sequence of DnaJB4 (Q9UDY4 whole entry): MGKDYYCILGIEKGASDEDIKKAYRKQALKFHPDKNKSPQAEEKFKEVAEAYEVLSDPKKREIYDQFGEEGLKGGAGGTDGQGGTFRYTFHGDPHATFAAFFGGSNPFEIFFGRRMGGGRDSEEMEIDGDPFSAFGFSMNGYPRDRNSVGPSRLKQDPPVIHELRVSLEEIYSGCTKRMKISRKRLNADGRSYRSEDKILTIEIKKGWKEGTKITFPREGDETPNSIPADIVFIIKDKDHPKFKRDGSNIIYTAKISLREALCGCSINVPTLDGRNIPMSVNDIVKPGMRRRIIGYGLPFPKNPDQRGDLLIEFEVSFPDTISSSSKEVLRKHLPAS

B1: Hsp72 tracer FITC-Ahx-GSGPTIEEVD (peptide)
peptide: GSGPTIEEVD-OH
modifications: not fully specified (N-terminus); printed as FITC-Ahx-GSGPTIEEVD
[1]
  Kd: 1050 nM

B2: Hsp72 T636E tracer FITC-Ahx-GSGPEIEEVD (peptide)
peptide: GSGPEIEEVD-OH
modifications: not fully specified (N-terminus); printed as FITC-Ahx-GSGPEIEEVD
DnaJB4
  Kd: 1760 nM
[1]
  Kd: 5040 nM
